According to US20120263734A1 (THERACLONE SCIENCES, published 2012):
Changes are numbered by the printed parent chain.

B1: 2N9 human anti-CMV antibody (antibody, V domains shown)
VH: QVQLVESGGGVVQPGRSLRLSCAASGFTFSSNGIHWVRQAPGKGLDWVAVISSDANDKQYADSVKGRFTISRDNSKNMVYLQMNSLRVEDTAVYFCARDGTCSGGNCYSGLIDYWGRGILVTVSS
VL: EIVLTQSPATLSLSPGERATLSCRASQSVGGYLAWYQQKPGQAPRLLIYDASIRATGIPARFSGSGSGTDFTLTISSLEPEDFAVYYCHQRSNWPPLTFGGGTKVDIKR
B2: 2F10 human anti-CMV antibody (antibody, V domains shown)
VH: QVHLVESGGGVVQPGRALRLSCAATGFTFSNHGIHWVRQAPGKGLEWLAVISSDGDDDRYADSVKGRFSVSRDNSKNTVHLQMNGLRPDDTAIYFCARDGRCGEPKCYSGLPDYWGRGTLVTVSS
VL: B1 VL with E17D, I48L, I53N, V85L, H89L, S92N, N93T, D106E
B3: 5P9 human anti-CMV antibody (antibody, V domains shown)
VH: QVQLVESGGGVIQPGRSLRLSCVASKFIFSNHGIHWVRQAPGKGLEWVAVISKDGTNAHYADSVRGRFSISRDNSKDTVFLEMRSLRPEDTAVYYCAREGRCIEEKCYSGQIDYWGQGSLVTVSS
VL: B1 VL with V3L, G31R, L33M, K39R, E79Q, P80T, V85I, H89Q, N93S, D106E
B4: 4P12 human anti-CMV antibody (antibody, V domains shown)
VH: B3 VH with K106N
VL: B1 VL with V3L, G31R, L33M, K39R, E79Q, V85I, H89Q, N93S, D106E

Each binder was assayed against GPCMV gB (glycoprotein B of Guinea Pig CMV strain V545/82) (guinea pig CMV (GPCMV)) (assay: cell-based or functional assay).

Binder | neutralization of GPCMV V545/82 entry into JH4 cells (highest concentration tested, no effect) [µg/mL]
B1 | > 300
B2 | > 300
B3 | > 300
B4 | > 300
